According to patent US9988424 (DUKE UNIVERSITY, dated 2018):
Like-named read-outs stand apart in the source and are kept apart here.

T1: AE.A244 V1/V2 Tags N156QN160Q (HIV-1)
T1 chain: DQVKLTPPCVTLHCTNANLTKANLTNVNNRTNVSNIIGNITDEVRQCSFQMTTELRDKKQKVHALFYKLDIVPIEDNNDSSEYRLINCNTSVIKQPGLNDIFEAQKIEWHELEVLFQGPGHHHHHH

T2: J08 C.97ZA012V1V2 (HIV-1)
T2 chain: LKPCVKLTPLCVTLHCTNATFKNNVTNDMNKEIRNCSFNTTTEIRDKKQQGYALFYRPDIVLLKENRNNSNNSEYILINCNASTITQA

T3: gp70 B.CaseA2 V1/V2 (HIV-1 V1V2 on murine leukemia virus gp70)
T3 construct: also called B.gp70CaseA2 V1/V2; gp70 B.CaseAV1V2
T3 chain: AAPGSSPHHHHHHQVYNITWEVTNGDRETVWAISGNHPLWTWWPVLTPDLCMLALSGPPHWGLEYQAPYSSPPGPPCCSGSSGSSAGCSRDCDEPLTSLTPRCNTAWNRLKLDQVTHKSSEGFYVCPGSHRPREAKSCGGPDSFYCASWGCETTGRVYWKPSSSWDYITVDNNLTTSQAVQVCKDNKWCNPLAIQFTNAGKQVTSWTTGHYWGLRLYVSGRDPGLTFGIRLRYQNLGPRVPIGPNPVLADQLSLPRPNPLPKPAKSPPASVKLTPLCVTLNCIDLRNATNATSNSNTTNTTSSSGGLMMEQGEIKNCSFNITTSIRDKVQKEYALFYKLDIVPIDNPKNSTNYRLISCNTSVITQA

T4: B.63521_V1V2 Tags
T4 Env construct: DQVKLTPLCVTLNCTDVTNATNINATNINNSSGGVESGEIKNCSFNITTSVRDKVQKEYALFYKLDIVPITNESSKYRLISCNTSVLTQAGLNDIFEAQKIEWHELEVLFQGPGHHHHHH


Legend:
[1] = target: T5, AE.A244 V1/V2 tags, natively deglycosylated (HIV-1); test: ELISA
T5 construct: also called AE.A244V1V2 tags Degly

AE.A244 gD+ gp120 [2] = target: T6, AE.A244 gD+ gp120 (HIV-1); test: ELISA
T6 construct: domain: gp120; also called AE.A244 gp120gD+

AE.A244 gp120 [3] = target: T7, AE.A244 gp120 (HIV-1); test: ELISA
T7 construct: also called AE.A244 gD-gp120; E.A244gDneg

AE.A244 gp120 [4] = target: T7, AE.A244 gp120
92TH023 gp120 = 92TH023 gp120 (HIV-1)
AE.A244 gp120 delta 11 [5] = target: T8, AE.A244 gp120 delta 11 (HIV-1); test: ELISA
T8 construct: also called E.A244gp120Δ11; AE.A244 Δ11 gp120

[6] = target: T1, AE.A244 V1/V2 Tags N156QN160Q; test: ELISA
[7] = target: T9, AE.703359 gp120D11/Q169K/R170Q/Q173H (HIV-1); test: ELISA
T9 construct: also called AE.703359 gp120 Mut3

AE.427299 gp120D11/Q169K = target: T10, AE.427299 gp120D11/Q169K (HIV-1); test: ELISA
T10 construct: also called AE.427299 gp120 Q169K

AE.A244 gp120D11/K169V = target: T11, AE.A244 gp120D11/K169V (HIV-1); test: ELISA
T11 construct: also called A244 gp120 K169V; AE.A244 gp120/K169V

AE.703359 gp120D11 = target: T12, AE.703359 gp120D11 (HIV-1); test: ELISA
T12 construct: also called AE; 703359 gp120 WT; AE.703357 (other spelling in the text)

AE.A244 gp120 delta 11 [8] = target: T8, AE.A244 gp120 delta 11; test: ELISA; remark: listed apart in the source
AE.703359 gp120D11/Q169K = target: T13, AE.703359 gp120D11/Q169K (HIV-1); test: ELISA
T13 construct: also called AE.703359 gp120 Q169K

[9] = target: T14, AE.427299 gp120/R168K/Q169K/Y173H/A174V (HIV-1); test: ELISA
T14 construct: also called AE.427299 gp120 Mut4

[10] = target: T15, AE.A244 gp120 D11/K169V/V172E/H173Y (HIV-1); test: ELISA
T15 construct: also called A244 gp120 Mut3

AE.427299 gp120D11 = target: T16, AE.427299 gp120D11 (HIV-1); test: ELISA
T16 construct: also called AE.427299 gp120 WT

J08 C.ZM109V1V2 N173D = J08 C.ZM109V1V2 N173D (HIV-1); test: ELISA
J08 C.97ZA012V1V2 = target: T2, J08 C.97ZA012V1V2; test: ELISA
gp70 A.92RW020V1V2 = gp70 A.92RW020V1V2 (murine leukemia virus; HIV-1); test: ELISA
J08 C.ZM109.V1V2 = J08 C.ZM109.V1V2 (HIV-1); test: ELISA
J08 A.92RW020V1V2 = J08 A.92RW020V1V2 (HIV-1); test: ELISA
AE.A244 gD+ gp120 [11] = target: T6, AE.A244 gD+ gp120; test: ELISA; remark: listed apart in the source
AE.A244 gp120 [12] = target: T7, AE.A244 gp120; test: ELISA; remark: listed apart in the source
gp70 B.CaseA2 V1/V2 [13] = target: T3, gp70 B.CaseA2 V1/V2; test: ELISA
A.Q23 V1V2 tags [14] = target: A.Q23 V1V2 tags (HIV-1); test: ELISA
gp70 B.CaseA2 V1/V2 [15] = target: T3, gp70 B.CaseA2 V1/V2; test: ELISA
A.Q23 V1V2 tags [16] = target: A.Q23 V1V2 tags (HIV-1); test: ELISA; remark: listed apart in the source
B. 684-6 gp140C = test: ELISA, OD405
B.63521_V1V2 Tags = target: T4, B.63521_V1V2 Tags; test: ELISA, OD405
B. 681-7 gp140C = test: ELISA, OD405
B.62357 140C = target: T17, B.62357 140C; test: ELISA, OD405
T17 construct: also called B.62357 gp140C

Row | Binder | EC50 [1] [nM] | EC50 (AE.A244 gD+ gp120 [2]) [nM] | EC50 (AE.A244 gp120 [3]) [nM] | IC50 (AE.A244 gp120 [4]) [nM] | IC50 (92TH023 gp120) [nM] | EC50 (AE.A244 gp120 delta 11 [5]) [nM] | binding result [6] | EC50 [7] [mg/L] | EC50 (AE.A244 gp120D11/K169V) [mg/L] | EC50 (AE.A244 gp120 delta 11 [8]) [mg/L] | EC50 (AE.703359 gp120D11/Q169K) [mg/L] | EC50 (J08 C.ZM109V1V2 N173D) [nM] | EC50 (J08 C.97ZA012V1V2) [nM] | EC50 (gp70 A.92RW020V1V2) [nM] | EC50 (J08 C.ZM109.V1V2) [nM] | EC50 (J08 A.92RW020V1V2) [nM] | EC50 (AE.A244 gD+ gp120 [11]) [nM] | EC50 (AE.A244 gp120 [12]) [nM] | EC50 (gp70 B.CaseA2 V1/V2 [13]) [nM] | EC50 (A.Q23 V1V2 tags [14]) [nM] | further results
1 | CH59 (antibody, V domains shown, also called mAb CH59) VH: EVQLVESGGGLVQPGRSLRLSCAASGFTFDDGAMHWVRQAPGKGLEWVSGISWNSNIIAYADSVKGRFTISRDNAKNSLYLEMNSLRVEDTALYYCAKDSPRGELPLNYWGQGTLVTVSS VL: SYELTQPPSVSVSPGQTARITCSGDALPKNYAYWYQQKSGQAPVLVIYEDSKRPSGIPERFSGSSSGTMATLTISGAQVEDEADYYCYSTDSSGNHRVFGGGTKLTVL | 0.0015 | 0.04 | 0.03 | < 10 | < 10 | 0.087 | binds | 0.05 | 0.58 | 0.029 | 1.2 | 22 | 107 | 235 | 1.16 | 377 | 0.04 | 0.03 |  |  | binding result (AE.427299 gp120D11/Q169K): no binding; binding result (AE.703359 gp120D11): no binding; EC50 [9]: 0.03 mg/L; binding result [10]: no binding; binding result (AE.427299 gp120D11): no binding
2 | CH59 reverted unmutated ancestor antibody (antibody, V domains shown, also called CH59 RUA; CH59_RUA) VH: EVQLVESGGGLVQPGRSLRLSCAASGFTFDDYAMHWVRQAPGKGLEWVSGISWNSGSIGYADSVKGRFTISRDNAKNSLYLQMNSLRAEDTALYYCAKDSPRGELPFDYWGQGTLVTVSS VL: SYELTQPPSVSVSPGQTARITCSGDALPKKYAYWYQQKSGQAPVLVIYEDSKRPSGIPERFSGSSSGTMATLTISGAQVEDEADYYCYSTDSSGNHRVFGGGTKLTVL |  |  |  |  |  | 15.5 |  |  |  |  |  |  |  |  |  |  |  |  |  |  | 
3 | 697D (antibody, V domains shown, also called mAb 697D; V2 conformational mAb 697D) VH: QVQLVQSGAEVKKPGSSVKVSCKASGGNFNTYTISWVRQAPGQGLEWMGRIIPIFGIVNPAQKFPGRVTINVDKSTNTAYMELSSLRSEDTAVYYCATSGVGLHFGYFDYWGQGTQVTVSS VL: QSVLTQPPSVSGAPGQRVTISCTGSSSNIGAHYDVHWYQQLPGTAPKLLIYGNSNRPSGVPDRFSGSKSGTSASLAITGLQAEDEADYYCQSYDSSLSGYVFGTGTKVTVL | 3.6 |  | 0.8 | < 10 |  | 0.23 |  | 0.12 | 0.06 | 0.1 | 0.51 | 0.41 | 0.06 | 14 | 3 | 0.07 |  | 0.8 | 0.08 | > 66.7 | EC50 (AE.427299 gp120D11/Q169K): 0.13 mg/L; EC50 (AE.703359 gp120D11): 0.21 mg/L; binding result [9]: no binding; EC50 [10]: 0.08 mg/L; EC50 (AE.427299 gp120D11): 0.07 mg/L; EC50 (gp70 B.CaseA2 V1/V2 [15]): 0.33 nM; EC50 (A.Q23 V1V2 tags [16]): > 66.7 nM
4 | 697D reverted unmutated ancestor antibody (antibody, V domains shown, also called 697D RUA) VH: QVQLVQSGAEVKKPGSSVKVSCKASGGTFSSYTISWVRQAPGQGLEWMGRIIPILGIANYAQKFQGRVTITADKSTSTAYMELSSLRSEDTAVYYCATSGVGLHFGYFDYWGQGTLVTVSS VL: QSVLTQPPSVSGAPGQRVTISCTGSSSNIGAGYDVHWYQQLPGTAPKLLIYGNSNRPSGVPDRFSGSKSGTSASLAITGLQAEDEADYYCQSYDSSLSGYVFGTGTKVTVL |  |  |  |  |  | > 667 |  |  |  |  |  |  |  |  |  |  |  |  | > 667 | > 667 | EC50 (gp70 B.CaseA2 V1/V2 [15]): > 667 nM; EC50 (A.Q23 V1V2 tags [16]): > 667 nM
5 | PG16 (antibody, V domains shown, also called mAb PG16; bnAb PG16) VH: QEQLVESGGGVVQPGGSLRLSCLASGFTFHKYGMHWVRQAPGKGLEWVALISDDGMRKYHSDSMWGRVTISRDNSKNTLYLQFSSLKVEDTAMFFCAREAGGPIWHDDVKYYDFNDGYYNYHYMDVWGKGTTVTVSS VL: QSALTQPASVSGSPGQTITISCNGTSSDVGGFDSVSWYQQSPGKAPKVMVFDVSHRPSGISNRFSGSKSGNTASLTISGLHIEDEGDYFCSSLTDRSHRIFGGGTKVTVL |  | 15 |  |  | 10 to 100 |  | no binding (tested: 100 ug/ml) |  |  |  |  |  |  |  |  |  | 15 |  |  |  | 
6 | PG16 reverted unmutated ancestor antibody (antibody, V domains shown, also called PG16 RUA; PG16_RUA) VH: QVQLVESGGGVVQPGRSLRLSCAASGFTFSSYGMHWVRQAPGKGLEWVAVISYDGSNKYYADSVKGRFTISRDNSKNTLYLQMNSLRAEDTAVYYCAREAGGPIWHDDVKYYDFNDGYYYYYYMDVWGKGTTVTVSS VL: QSALTQPASVSGSPGQSITISCTGTSSDVGSYNLVSWYQQHPGKAPKLMIYEVSKRPSGVSNRFSGSKSGNTASLTISGLQAEDEADYYCCSLTDRSHRIFGGGTKLTVL |  |  |  |  |  |  |  |  |  |  |  |  |  |  |  |  |  |  |  |  | binding result (B. 684-6 gp140C): no binding (tested: 10 ug/ml); binding result (B.63521_V1V2 Tags): no binding (tested: 10 ug/ml); binding result (B. 681-7 gp140C): no binding (tested: 10 ug/ml); binding result (B.62357 140C): no binding (tested: 10 ug/ml)
